We go through 139 substances from the supplement of paper PMC12042874.

± gives the uncertainty stated by the source.

A short description of the series: amyloid nucleation score (Sup35N fusion, yeast selection) (log enrichment); library NNK1; higher = more nucleation; inactive = no reads after selection. The essentials:
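Nucleation score: DiMSum log enrichment of output over input reads, centred on the mode score of non-aggregating sequences. Only sequences with at least 100 input reads were kept. Reads came from Illumina sequencing of plasmid inserts before and after 7 days of growth at 30°C without adenine and uracil, in psi-negative yeast expressing Sup35N fused to peptides of 20 random codons after 24 hours of induction with 100 μM copper sulfate.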
In turn, KNYDGCHMSYVGSRGWITSL showed an amyloid nucleation score of 0.215 ± 1.4.

Substance KPGTNSYGCVYNHGFMGCTK registered an amyloid nucleation score of -0.245 ± 0.45.

With KPWLVHMHGSSYNGRADAEV, the amyloid nucleation score was 0.811 ± 0.61.

Substance KQTLLYHSSGSCCWELVSWW displayed an amyloid nucleation score of 4.39 ± 0.097.

KQYPI displayed an amyloid nucleation score of -1.33 ± 2.4.

Substance KRFLSYWRFSWGWYIAQACG registered an amyloid nucleation score of -0.68 ± 1.4.

For KRFSKDLLMAESDLCIGCMM, the amyloid nucleation score is -0.817 ± 2.4.

Turning to KRPSMM, the amyloid nucleation score is -0.18 ± 0.3.

Consider KSDSVLAGY, for which the amyloid nucleation score was found to be 5.039 ± 0.05.

The substance KSGSKCRLRGSDNSNRLSVM gave an amyloid nucleation score of -0.335 ± 1.5.

The substance KSMECSFAWLWDSREFIFCH gave an amyloid nucleation score of -1.67 ± 1.4.

Regarding KSRGRKSSGDFPIRGD, the amyloid nucleation score turned out to be 4.84 ± 0.062.

With KSTPEYRSKDSMCELHKDMC, the amyloid nucleation score result was “inactive”.

KSTRWQIRSDALDVSERCFS returned an amyloid nucleation score of 1 ± 0.76.

Take KSTTLLVGSRSCGAHLQRLH: the amyloid nucleation score was 0.462 ± 0.37.

As for KSVVLHWYAYSMLYPLWNLV, the amyloid nucleation score came out at 0.511 ± 0.53.

As to KTPLYLPYLYFSIRLMCYWY, the amyloid nucleation score was -0.47 ± 0.21.

On to KTSVL, for which the amyloid nucleation score was -0.616 ± 0.39.

The substance KVHKLIDNYMLRSRWY displayed an amyloid nucleation score of -0.139 ± 0.9.

As to KVLELYRILYRREHNFWVEV, the amyloid nucleation score is -0.317 ± 1.6.

The substance KVLMTAGFYVVLRALKHRTK came in with an amyloid nucleation score of 1.51 ± 0.34.

KVNLTSCSY returned an amyloid nucleation score of -0.059 ± 0.42.

For KVNTLCEHSSIHRPVVGNGG, the amyloid nucleation score is 0.082 ± 0.77.

Substance KVRHNVVLG showed an amyloid nucleation score of -1.19 ± 0.66.

Substance KVRIQGPTNVCVVRTMCGWF showed an amyloid nucleation score of 5.98 ± 0.056.

KWDKVALYFDQVQITELCIY gave an amyloid nucleation score of 4.21 ± 0.091.

In the case of KWNCLVSCRLCELYLIPLI, the amyloid nucleation score is 3.58 ± 0.081.

KWNFVHMDQKGKELNSLFSL: the amyloid nucleation score was -0.649 ± 0.54.

For the substance KYFIMCDIILCVVPVSYTGG, the amyloid nucleation score stood at 3.87 ± 0.074.

In turn, KYFSSNSKYIYDQLIVPSRT gave an amyloid nucleation score of -0.42 ± 1.7.

In turn, KYLFFMVFQWS showed an amyloid nucleation score of 0.439 ± 0.84.

Substance KYTYGRHTQLVLDSIHSWLN gave an amyloid nucleation score of 0.235 ± 0.75.

For the substance LACTSASSVSRESFMYSQMS, the amyloid nucleation score worked out at 2.78 ± 0.16.

Substance LAEWRLYLRRTVWYLRILIR showed an amyloid nucleation score of -0.066 ± 1.

The substance LAFNTIYWVIRIESFWLSAA gave an amyloid nucleation score of -0.189 ± 0.36.

The substance LAGQVVRRTKTLWHAPAHPY yielded an amyloid nucleation score of 0.374 ± 0.36.

In turn, LALVDAHK showed an amyloid nucleation score of -1.02 ± 1.

Regarding LAMPLFPLQDGSW, the amyloid nucleation score result was “inactive”.

The substance LARTMYCYIVSEKVLWSGVG had an amyloid nucleation score of 2.15 ± 0.1.

For LARYMIYWGLMSAGRHRRHY, the amyloid nucleation score was -0.46 ± 0.43.

For the substance LASFMQRRAYSDGHDMLVRM, the amyloid nucleation score result was “inactive”.

LAVRESIVQDKTWQDYE: the amyloid nucleation score was -0.102 ± 0.18.

In turn, LAWWLCGNLVTWYIITDGQW had an amyloid nucleation score of 1.04 ± 0.55.

Turning to LAYRR, the amyloid nucleation score was found to be 0.274 ± 0.63.

The substance LCAISHIE had an amyloid nucleation score of -0.502 ± 0.28.

The substance LCDGFILLSNVLLGPMIYDW registered an amyloid nucleation score of 0.561 ± 0.27.

Take LCDMAIDVFCLSCCK: the amyloid nucleation score is 6.652 ± 0.05.

With LCFCVKVS, the amyloid nucleation score entry was “inactive”.

Consider LCIWYICRT, for which the amyloid nucleation score was 3.2 ± 0.16.

Regarding LCLGLHSNLSLSMLRLLVLE, the amyloid nucleation score was -0.482 ± 1.4.

Regarding LCLLIDNTYIVDVFFYVLSQ, the amyloid nucleation score was found to be 1.49 ± 0.32.

With LCLTKNMCTSIVRVRALVCR, the amyloid nucleation score was -0.161 ± 0.26.

Substance LCNIITGVSSIGAYWSTKIL registered an amyloid nucleation score of 1.22 ± 0.57.

The substance LCNVEDRPYKKFPTDVASK gave an amyloid nucleation score of -0.031 ± 0.31.

On to LCPGFNWESFLVKMVLHFFR, for which the amyloid nucleation score was -0.606 ± 0.75.

Substance LCSNYQCLTTVYQLVVVAEW displayed an amyloid nucleation score of 3.54 ± 0.13.

The substance LDDLPTILGVSEHSRSFVKV yielded an amyloid nucleation score of -0.324 ± 0.61.

With LDEFSTSISITEWSSKL, the amyloid nucleation score was -0.261 ± 0.3.

Substance LDGTLVLTYL returned an amyloid nucleation score of 0.134 ± 0.42.

In turn, LDHTTVWCWCGTGGLYRRCC showed an amyloid nucleation score of -0.29 ± 0.31.

The substance LDIINLGGRHFTRSPVLYRN showed an amyloid nucleation score of -0.297 ± 0.49.

Substance LDLAFSFLHSTNIWTTFGLC yielded an amyloid nucleation score of -1.6 ± 1.4.

Regarding LDLMVVCFKGIRGFEKMIGG, the amyloid nucleation score stood at 1.5 ± 0.31.

For the substance LDQRKGPFSNSALRGHSWCN, the amyloid nucleation score is -0.506 ± 0.44.

LDSFTYKS: the amyloid nucleation score was 1.99 ± 0.49.

LDVSTRQRLVGVD returned an amyloid nucleation score of -0.2 ± 0.61.

In turn, LEKQMNASQFAPPRLLLRKL returned an amyloid nucleation score of 0.498 ± 0.87.

The substance LELLSSWWYSSIYTGTDCVT registered an amyloid nucleation score of 2.08 ± 0.25.

In turn, LEVMRWYWESLLACISLCD gave an amyloid nucleation score of 0.853 ± 0.74.

LFCSLGSSPAYVNKWCVHLE had an amyloid nucleation score of 0.862 ± 0.45.

Turning to LFCVSDSPCVCGRHSISYDW, the amyloid nucleation score was -0.601 ± 0.9.

LFFMVLFNKSTEFERLFHIV gave an amyloid nucleation score of -0.633 ± 0.56.

Substance LFGLNWYNNGGRKSGCSDWA showed an amyloid nucleation score of -0.503 ± 0.98.

In the case of LFKLSLGCTYCSFA, the amyloid nucleation score was -0.292 ± 0.42.

As for LFLFTGLSSRSLHMCIYEIL, the amyloid nucleation score is -0.046 ± 0.34.

LFLGMSNGLFLRMISRGCKW registered an amyloid nucleation score of -0.243 ± 0.33.

LFMLSSVGASMYFMG showed an amyloid nucleation score of 1.69 ± 0.19.

Regarding LFMLWLCCIKVFNKGCFGRS, the amyloid nucleation score is -0.297 ± 0.26.

Substance LFPRVMN yielded an amyloid nucleation score of 0.338 ± 0.58.

Regarding LFRFNWLDSNPV, the amyloid nucleation score result was “inactive”.

For the substance LFRGDGFRKLLFWNSSTFET, the amyloid nucleation score was determined as 2.67 ± 0.12.

Consider LFRIIWGCS, for which the amyloid nucleation score entry is “inactive”.

LFRIPDWPEL displayed an amyloid nucleation score of -1.07 ± 0.77.

For the substance LFRWVLLFFVRT, the amyloid nucleation score entry was “inactive”.

Regarding LFSNTNK, the amyloid nucleation score entry was “inactive”.

The substance LFSSYSLEE gave an amyloid nucleation score of 1.1 ± 0.77.

The substance LFSWFWNEI had an amyloid nucleation score of 0.658 ± 0.72.

With LFTIMTLDCNFRLSGLSLAI, the amyloid nucleation score stood at 0.236 ± 0.21.

LFTTWMSRGDIVSYNFFL yielded an amyloid nucleation score of 7.681 ± 0.049.

For LFVGRGIAFVSFGPLALS, the amyloid nucleation score is 3.83 ± 0.08.

Substance LFWWKE displayed an amyloid nucleation score of -0.292 ± 0.44.

Turning to LFYPFTLHWVCCSWCLYEVR, the amyloid nucleation score was found to be 6.927 ± 0.056.

In turn, LGAMRLFTRSLFLADWKYDV showed an amyloid nucleation score of -0.04 ± 0.45.

In the case of LGFSSVYWESCSL, the amyloid nucleation score is -0.275 ± 0.58.

LGFVDISGSYEVLGGYPSLR gave an amyloid nucleation score of 0.031 ± 1.2.

Regarding LGGFYTRRCVCSLGTRQERE, the amyloid nucleation score is -0.072 ± 0.49.

Substance LGHGLDRMKLRTECNCTVVD came in with an amyloid nucleation score of -0.503 ± 0.3.

For LGICLLCTDIWDRVGNLCSL, the amyloid nucleation score is -0.041 ± 0.33.

LGLTYWCYNFIQGDVFPPVQ came in with an amyloid nucleation score of 3.46 ± 0.15.

LGLYSVCC yielded an amyloid nucleation score of -0.219 ± 0.3.

LGPNFGTKFNMGCY came in with an amyloid nucleation score of -0.304 ± 0.24.

Take LGSILV: the amyloid nucleation score is -0.751 ± 0.94.

Turning to LGTLNAGHTRDVDGAMGYVW, the amyloid nucleation score amounted to 0.252 ± 1.1.

Substance LGYIEKFWVGGHYLFLPTIY gave an amyloid nucleation score of 0.073 ± 1.5.

Regarding LHCYFAFDLLWIALRTTVRI, the amyloid nucleation score was -0.457 ± 1.

Turning to LHDQCLAHGQWCNTWGK, the amyloid nucleation score was -0.022 ± 0.39.

LHFVERLSLRPMGVVGFSRK had an amyloid nucleation score of -0.178 ± 0.7.

As for LHLNLLAQDHLCREMTAAMS, the amyloid nucleation score was -0.771 ± 1.7.

For the substance LHLVTYFVTYVLYSFSISAS, the amyloid nucleation score was -0.268 ± 0.7.

Consider LHLWCLQSFYMCWKCPPILE, for which the amyloid nucleation score worked out at 2.57 ± 0.26.

LHNYLLCTRVNRIDVLRMTL: the amyloid nucleation score was -0.854 ± 0.37.

In the case of LHPVLALPAFNVDRNSMPC, the amyloid nucleation score is -0.335 ± 0.52.

The substance LHRIVTVNIP showed an amyloid nucleation score of 1.23 ± 0.8.

As to LHRSRFHDNTTSNGLLKGTV, the amyloid nucleation score is -0.574 ± 0.6.

As to LHRYNYLVYRSTKCMFGVLI, the amyloid nucleation score was determined as 0.222 ± 0.52.

With LHSIDVDIDVEFLSTHRDGP, the amyloid nucleation score entry was “inactive”.

The substance LHTKVV registered an amyloid nucleation score of 0.431 ± 0.77.

LHTRGLEMFRIGPSCCKWPL: the amyloid nucleation score was 1.49 ± 0.68.

LIALLLAWDMYI returned an amyloid nucleation score of 0.18 ± 0.32.

Substance LIEDHVLYHVRAKKYRSHYI had an amyloid nucleation score of -0.381 ± 0.79.

In the case of LIFSNNWFYYTFYDS, the amyloid nucleation score turned out to be 5.85 ± 0.087.

As for LIFVKDVTLVMHGEERYRRS, the amyloid nucleation score came to 5.508 ± 0.049.

LIHSRKVLSSMTYIEGPLTS yielded an amyloid nucleation score of 0.166 ± 0.34.

On to LIISFVIVSRMLSVRFSTIV, for which the amyloid nucleation score amounted to 0.262 ± 0.61.

The substance LIKLLRVKRMYASYLFSNKV had an amyloid nucleation score of -1.33 ± 1.6.

In the case of LILCCPYNFNLVLMCCPKVG, the amyloid nucleation score came to 7.268 ± 0.049.

The substance LILEHNFWVRISYELVPCFW came in with an amyloid nucleation score of 1.15 ± 0.3.

LILFVGIYTLHYYGFNRRYS registered an amyloid nucleation score of 0.272 ± 0.69.

In turn, LILILNGMRNWSLAEDGACS had an amyloid nucleation score of 0.326 ± 0.85.

The substance LISFEHEFKRCHCALVTWT came in with an amyloid nucleation score of -0.048 ± 0.3.

Turning to LISLRVHYAASLFFFPVDDF, the amyloid nucleation score was found to be 0.998 ± 0.93.

With LISNRPMW, the amyloid nucleation score amounted to 0.29 ± 0.48.

In turn, LIVVVTLSGEHRFSVMVYRN displayed an amyloid nucleation score of -0.001 ± 0.64.

In turn, LIYPGIVDFVFSDARQGCSR gave an amyloid nucleation score of 1.08 ± 0.69.

In the case of LKCLFLIAIFYIINCCSNLS, the amyloid nucleation score entry was “inactive”.

LKCRLLVQTQLSESRGMWTS registered an amyloid nucleation score of 0.316 ± 0.7.

For the substance LKIEPRC, the amyloid nucleation score was -0.512 ± 0.4.

The substance LKRMFFSNVLFFGSMIAGNR had an amyloid nucleation score of 0.162 ± 0.59.

On to LKTWVDFRDYLLAPKAVCIY, for which the amyloid nucleation score was 0.161 ± 0.57.
